From patent US20220315627A1

What was measured:
[1] = target: variant of repaired and stabilized Du422 construct (HIV161818) with the additional K655I substitution (HIV-1 strain Du422 (clade C)); assay: assay not named in Example 11; trimer yield as defined in Example 3 (PGT145 AlphaLISA signal)
[2] = target: C97ZA_SOSIP_L556P_T651F_M535N (HIV-1 strain C97ZA (clade C)); assay: AlphaLISA on crude supernatant as in Example 3: normalized PGT145 signal
[3] = target: ConC_SOSIP with E64K, T316W double substitution (HIV-1 clade C consensus (artificial)); assay: AlphaLISA on crude supernatant: PGT145 signal divided by total Env signal (His/Flag beads)
[4] = target: ConC_SOSIP with disulfide double substitution I204C, A433C (HIV-1 clade C consensus (artificial)); assay: as above
[5] = target: variant of repaired and stabilized Du422 construct (HIV161818) with the additional K655I substitution (HIV-1 strain Du422 (clade C)); assay: assay not named in Example 11; trimer percentage as defined in Example 3 (PGT145 AlphaLISA signal over total Env signal)

Substance: mAb PGT145 (antibody)
- trimer yield, fold over the variant of SEQ ID NO: 25 without K655I [1]: 1.3 fold
- trimer yield, fold over the C97ZA SOSIP backbone [2]: 5 fold
- percentage of trimer formation [3]: 15%
- percentage of trimer formation [4]: 43%
- trimer percentage, fold over the variant of SEQ ID NO: 25 without K655I [5]: 1.4 fold
